Values belong to the binder of their own block, whether it stands above or below them.
B4: SinR^W104R (natural protein, B. subtilis)
chain: MIGQRIKQYRKEKGYSLSELAEKAGVAKSYLSSIERNLQTNPSIQFLEKVSAVLDVSVHTLLDEKHETEYDGQLDSEWEKLVRDAMTSGVSKKQFREFLDYQKRRKSQKEE
notes: SinR, Bacillus subtilis, with W104R; allele amplified from chromosomal DNA of the suppressor mutant with primer pair G8/G10, cloned in pET24a (NdeI/EcoRI); Spontaneous suppressor allele isolated in the laboratory from a ymdB mutant; source: E. coli BL21(DE3), purified (heparin Sepharose, size exclusion)
B5: SinR^A85T (natural protein, B. subtilis)
chain: MIGQRIKQYRKEKGYSLSELAEKAGVAKSYLSSIERNLQTNPSIQFLEKVSAVLDVSVHTLLDEKHETEYDGQLDSEWEKLVRDTMTSGVSKKQFREFLDYQKWRKSQKEE
notes: SinR, Bacillus subtilis, with A85T; allele amplified from chromosomal DNA of the suppressor mutant with primer pair G8/G10, cloned in pET24a (NdeI/EcoRI); Spontaneous suppressor allele isolated in the laboratory from a ymdB mutant; source: E. coli BL21(DE3), purified (heparin Sepharose, size exclusion)
B6: SinR^W104L (natural protein, B. subtilis)
chain: MIGQRIKQYRKEKGYSLSELAEKAGVAKSYLSSIERNLQTNPSIQFLEKVSAVLDVSVHTLLDEKHETEYDGQLDSEWEKLVRDAMTSGVSKKQFREFLDYQKLRKSQKEE
notes: SinR, Bacillus subtilis, with W104L; allele amplified from chromosomal DNA of the suppressor mutant with primer pair G8/G10, cloned in pET24a (NdeI/EcoRI); Spontaneous suppressor allele isolated in the laboratory from a ymdB mutant; source: E. coli BL21(DE3), purified (heparin Sepharose, size exclusion)
B7: SinR^S43A (natural protein, B. subtilis)
chain: MIGQRIKQYRKEKGYSLSELAEKAGVAKSYLSSIERNLQTNPAIQFLEKVSAVLDVSVHTLLDEKHETEYDGQLDSEWEKLVRDAMTSGVSKKQFREFLDYQKWRKSQKEE
notes: SinR, Bacillus subtilis, with S43A; allele amplified from chromosomal DNA of the suppressor mutant with primer pair G8/G10, cloned in pET24a (NdeI/EcoRI); Spontaneous suppressor allele isolated in the laboratory from a ymdB mutant; source: E. coli BL21(DE3), purified (heparin Sepharose, size exclusion)

Key:
SinR^S43A = target: B7; assay: fluorescence polarisation; displacement of fluorescein-labelled 21-bp operator DNA (10 nM) from 5 µM SinR by SinI titrated from 50 µM to 10 nM; 10 mM Tris-HCl pH 8.0, 100 mM NaCl, 1 mM EDTA; qualitative; conditions: both partners purified
SinR^W104L = target: B6; assay: as above; conditions: both partners purified
SinR^W104R = target: B4; assay: as above; conditions: both partners purified
SinR^A85T = target: B5; assay: as above; conditions: both partners purified
[1] = target: the molecule itself; assay: SEC-MALS; SinR proteins at 5 mg/ml (equivalent to 400 µM), 150 µl on Superdex 200 Increase 10/300 GL, 50 mM Tris-HCl pH 8.0, 250 mM NaCl, 0.5 ml/min; refractive index at 25°C
SinR K28T = target: T1, SinR K28T (Bacillus subtilis, UniProt P06533 1-111, K28T); assay: fluorescence polarization; no polarization change up to 20 uM protein; 10 mM Tris-HCl pH 8.0, 100 mM NaCl, 1 mM EDTA; 10 nM labeled duplex, SinR diluted from 20 uM; temperature not stated; conditions: protein: recombinant; tags: none (pET24a, native stop codon in primer G10); chain copies: 4; label: 5'-fluorescein (FAM) on strand 1; blunt
T1 sequence: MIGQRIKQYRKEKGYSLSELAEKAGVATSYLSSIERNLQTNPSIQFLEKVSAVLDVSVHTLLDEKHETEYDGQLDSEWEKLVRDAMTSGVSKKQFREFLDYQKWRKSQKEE

SinR S43A = target: T2, SinR S43A (Bacillus subtilis, UniProt P06533 1-111, S43A); assay: fluorescence polarization; 10 mM Tris-HCl pH 8.0, 100 mM NaCl, 1 mM EDTA; 10 nM labeled duplex, SinR diluted from 20 uM; temperature not stated; conditions: protein: recombinant; tags: none (pET24a, native stop codon in primer G10); chain copies: 4; label: 5'-fluorescein (FAM) on strand 1; blunt
T2 sequence: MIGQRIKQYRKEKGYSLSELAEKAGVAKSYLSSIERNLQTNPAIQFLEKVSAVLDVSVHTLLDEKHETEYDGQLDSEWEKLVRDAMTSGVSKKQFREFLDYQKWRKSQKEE

SinR W104L = target: T3, SinR W104L (Bacillus subtilis, UniProt P06533 1-111, W104L); assay: as above; conditions: protein: recombinant; tags: none (pET24a, native stop codon in primer G10); chain copies: 2; label: 5'-fluorescein (FAM) on strand 1; blunt
T3 sequence: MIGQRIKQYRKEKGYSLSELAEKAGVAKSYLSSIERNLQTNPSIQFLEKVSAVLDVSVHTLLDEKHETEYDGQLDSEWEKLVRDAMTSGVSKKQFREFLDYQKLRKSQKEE

SinR W104R = target: T4, SinR W104R (Bacillus subtilis, UniProt P06533 1-111, W104R); assay: as above; conditions: protein: recombinant; tags: none (pET24a, native stop codon in primer G10); chain copies: 2; label: 5'-fluorescein (FAM) on strand 1; blunt
T4 sequence: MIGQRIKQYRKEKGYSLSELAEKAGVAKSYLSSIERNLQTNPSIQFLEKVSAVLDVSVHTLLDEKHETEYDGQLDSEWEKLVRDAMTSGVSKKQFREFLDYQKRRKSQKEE

SinR A85T = target: T5, SinR A85T (Bacillus subtilis, UniProt P06533 1-111, A85T); assay: as above; conditions: protein: recombinant; tags: none (pET24a, native stop codon in primer G10); chain copies: 4; label: 5'-fluorescein (FAM) on strand 1; blunt
T5 sequence: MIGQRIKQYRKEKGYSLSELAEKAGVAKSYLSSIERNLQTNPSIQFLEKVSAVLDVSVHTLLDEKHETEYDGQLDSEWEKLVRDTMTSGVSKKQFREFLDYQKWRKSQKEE

SinR wild type = target: T6, SinR wild type (Bacillus subtilis, UniProt P06533 1-111); assay: as above; conditions: protein: recombinant; tags: none (pET24a, native stop codon in primer G10); chain copies: 4; label: 5'-fluorescein (FAM) on strand 1; blunt
T6 sequence: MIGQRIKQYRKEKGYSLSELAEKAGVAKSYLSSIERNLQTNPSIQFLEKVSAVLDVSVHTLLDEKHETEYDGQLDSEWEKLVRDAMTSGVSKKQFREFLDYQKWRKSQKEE

binding result (SinR^S43A): binds
percent of SinR-bound DNA released by a 10-fold molar excess of SinI (SinR^W104L): ~60%
percent of SinR-bound DNA released by a 10-fold molar excess of SinI (SinR^W104R): ~60%
binding result (SinR^A85T): binds
B1: SinI (natural protein, B. subtilis, UniProt P23308 1-57, looked up)
chain: MKNAKQEHFELDQEWVELMVEAKEANISPEEIRKYLLLNKKSAHPGPAARSHTVNPF
notes: SinI, antagonist of SinR, Bacillus subtilis; sinI gene amplified by PCR with primer pair G6/G7 and cloned into plasmid pC2; also called SinR antagonist SinI; source: E. coli BL21(DE3), purified (ANX ion exchange, size exclusion)

B2: SinR wild type (natural protein, B. subtilis)
chain: MIGQRIKQYRKEKGYSLSELAEKAGVAKSYLSSIERNLQTNPSIQFLEKVSAVLDVSVHTLLDEKHETEYDGQLDSEWEKLVRDAMTSGVSKKQFREFLDYQKWRKSQKEE
notes: SinR, master regulator of biofilm formation, Bacillus subtilis; sinR allele amplified from chromosomal DNA with primer pair G8/G10 and cloned between NdeI and EcoRI of pET24a; monomer printed as 12.85 kDa; The printed monomer mass of 12.85 kDa fits the whole protein of 111 residues; No tag is named and purification was by heparin and size exclusion; also called wild-type SinR; source: E. coli …
stoichiometry N [1]: 4

B3: SinR^K28T (natural protein, B. subtilis)
chain: MIGQRIKQYRKEKGYSLSELAEKAGVATSYLSSIERNLQTNPSIQFLEKVSAVLDVSVHTLLDEKHETEYDGQLDSEWEKLVRDAMTSGVSKKQFREFLDYQKWRKSQKEE
notes: SinR, Bacillus subtilis, with K28T; allele amplified from chromosomal DNA of the suppressor mutant with primer pair G8/G10, cloned in pET24a (NdeI/EcoRI); Spontaneous suppressor allele isolated in the laboratory from a ymdB mutant; source: E. coli BL21(DE3), purified (heparin Sepharose, size exclusion)
stoichiometry N [1]: 4

Binder: B4
stoichiometry N [1]: 2

Binder: B5
stoichiometry N [1]: 4

Binder: B6
stoichiometry N [1]: 2

Binder: B7
stoichiometry N [1]: 4

B8: eps operator inverted-repeat SinR box duplex, 21 bp (FAM1721/C-1723) (dsDNA)
DNA 1: ATTGTTCTCTAAAGAGAACTT
DNA 2: AAGTTCTCTTTAGAGAACAAT
binding result (SinR K28T): no binding
Kd (SinR S43A): 350 ± 81 nM
Kd (SinR W104L): 1900 ± 298 nM
Kd (SinR W104R): 2580 ± 545 nM
Kd (SinR A85T): 852 ± 39 nM
Kd (SinR wild type): 179 ± 24 nM

Source: paper PMC6123443, “Selective Pressure for Biofilm Formation in Bacillus subtilis: Differential Effect of Mutations in the Master Regulator SinR on Bistability” (mBio, 2018)
